Reference: patent US20140162945A1 (BEIJING HANMI PHARMACEUTICAL, published 2014)
Where no end group is shown, it is not given here. [ ]: non-standard residue; d: D form. Phe(4-NO2) = N[C@@H](Cc1ccc([N+](=O)[O-])cc1)C(=O)O; Met(O) = CS(=O)CC[C@H](N)C(=O)O; Phg = N[C@H](C(=O)O)c1ccccc1; Nle = CCCC[C@H](N)C(=O)O; Aib = CC(C)(N)C(=O)O

T1: human GIP receptor (human, UniProt P48546 22-466)
T1 sequence (looked up): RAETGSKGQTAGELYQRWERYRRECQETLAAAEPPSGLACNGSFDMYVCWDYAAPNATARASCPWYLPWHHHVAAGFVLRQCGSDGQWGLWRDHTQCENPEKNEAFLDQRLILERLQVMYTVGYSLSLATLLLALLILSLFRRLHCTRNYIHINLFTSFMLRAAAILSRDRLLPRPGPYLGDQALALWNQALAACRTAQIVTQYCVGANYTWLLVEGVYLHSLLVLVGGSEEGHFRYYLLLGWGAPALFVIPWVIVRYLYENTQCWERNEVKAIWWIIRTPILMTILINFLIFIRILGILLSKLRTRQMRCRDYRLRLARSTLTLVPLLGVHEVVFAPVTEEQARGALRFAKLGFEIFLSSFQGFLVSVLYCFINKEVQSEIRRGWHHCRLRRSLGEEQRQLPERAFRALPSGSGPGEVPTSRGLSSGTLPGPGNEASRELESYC


Assays:
Assay in all cases: cell-based or functional assay
human GLP-1 receptor [1] = biological target: T2, human GLP-1 receptor (human, UniProt P43220 24-463)
T2 sequence (P43220 24-463): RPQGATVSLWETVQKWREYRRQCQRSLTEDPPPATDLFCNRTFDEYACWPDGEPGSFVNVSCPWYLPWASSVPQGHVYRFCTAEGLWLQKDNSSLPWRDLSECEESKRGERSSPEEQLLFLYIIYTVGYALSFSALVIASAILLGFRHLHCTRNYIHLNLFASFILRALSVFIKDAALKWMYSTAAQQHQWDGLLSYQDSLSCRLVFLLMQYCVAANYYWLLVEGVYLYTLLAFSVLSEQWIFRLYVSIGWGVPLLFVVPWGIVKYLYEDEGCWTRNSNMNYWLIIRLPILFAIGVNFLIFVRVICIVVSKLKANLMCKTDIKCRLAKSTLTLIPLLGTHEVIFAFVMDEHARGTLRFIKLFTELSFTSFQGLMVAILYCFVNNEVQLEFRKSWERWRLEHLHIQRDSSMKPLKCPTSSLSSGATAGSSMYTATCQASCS

human GIP receptor [2] = biological target: T1, human GIP receptor
human GLP-1 receptor [3] = biological target: T2, human GLP-1 receptor; remark: listed apart in the source
human GIP receptor [4] = biological target: T1, human GIP receptor; remark: listed apart in the source

| Binder | EC50, GLP-1 Receptor cAMP induction (human GLP-1 receptor [1]) [nM] | EC50, GIP Receptor cAMP induction (human GIP receptor [2]) [nM] | Relative Potency, GIP Receptor (human GIP receptor [2]) [%] | Relative Potency, GLP-1 Receptor (human GLP-1 receptor [1]) [%] | EC50, GLP-1R cAMP induction (human GLP-1 receptor [3]) [nM] | EC50, GIPR cAMP induction (human GIP receptor [4]) [nM] |
| --- | --- | --- | --- | --- | --- | --- |
| Y[Aib]EGTFTSDYSIY[Nle]EKEAQQDFVNWLLAQ-NH2 [Analog 020] | 830 | 0.27 | 51.8 |  |  |  |
| Y[Aib]EGTFTSDYSIF[Met(O)]EKIHQQDFVNWLLAQ-NH2 [Analog 007] | 836 | 19 |  |  |  |  |
| Y[Aib]EGTFISDYSIA[Met(O)]EKIHQQDFVNWLLAQ-NH2 (N-terminus assumed; SMILES CC[C@H](C)[C@H](NC(=O)[C@H](CO)NC(=O)[C@H](Cc1ccc(O)cc1)NC(=O)[C@H](CC(=O)O)NC(=O)[C@H](CO)NC(=O)[C@@H](NC(=O)[C@H](Cc1ccccc1)NC(=O)[C@@H](NC(=O)CNC(=O)[C@H](CCC(=O)O)NC(=O)C(C)(C)NC(=O)[C@@H](N)Cc1ccc(O)cc1)[C@@H](C)O)[C@@H](C)CC)C(=O)N[C@@H](C)C(=O)N[C@@H](CCS(C)=O)C(=O)N[C@@H](CCC(=O)O)C(=O)N[C@@H](CCCCN)C(=O)N[C@H](C(=O)N[C@@H](Cc1c[nH]cn1)C(=O)N[C@@H](CCC(N)=O)C(=O)N[C@@H](CCC(N)=O)C(=O)N[C@@H](CC(=O)O)C(=O)N[C@@H](Cc1ccccc1)C(=O)N[C@H](C(=O)N[C@@H](CC(N)=O)C(=O)N[C@@H](Cc1c[nH]c2ccccc12)C(=O)N[C@@H](CC(C)C)C(=O)N[C@@H](CC(C)C)C(=O)N[C@@H](C)C(=O)N[C@@H](CCC(N)=O)C(N)=O)C(C)C)[C@@H](C)CC) [Analog 006] | > 2000 | 6.66 |  |  |  |  |
| Y[Aib]EGTFTSDYSIYMEKQAAKEFIAWLVKG-NH2 (N-terminus assumed; SMILES CC[C@H](C)[C@H](NC(=O)[C@H](Cc1ccccc1)NC(=O)[C@H](CCC(=O)O)NC(=O)[C@H](CCCCN)NC(=O)[C@H](C)NC(=O)[C@H](C)NC(=O)[C@H](CCC(N)=O)NC(=O)[C@H](CCCCN)NC(=O)[C@H](CCC(=O)O)NC(=O)[C@H](CCSC)NC(=O)[C@H](Cc1ccc(O)cc1)NC(=O)[C@@H](NC(=O)[C@H](CO)NC(=O)[C@H](Cc1ccc(O)cc1)NC(=O)[C@H](CC(=O)O)NC(=O)[C@H](CO)NC(=O)[C@@H](NC(=O)[C@H](Cc1ccccc1)NC(=O)[C@@H](NC(=O)CNC(=O)[C@H](CCC(=O)O)NC(=O)C(C)(C)NC(=O)[C@@H](N)Cc1ccc(O)cc1)[C@@H](C)O)[C@@H](C)O)[C@@H](C)CC)C(=O)N[C@@H](C)C(=O)N[C@@H](Cc1c[nH]c2ccccc12)C(=O)N[C@@H](CC(C)C)C(=O)N[C@H](C(=O)N[C@@H](CCCCN)C(=O)NCC(N)=O)C(C)C) [Analog 025] | 0.837 | 1.5 | 33.3 | 131 | 0.837 | 1.5 |
| Y[Aib]EGTFTSDYSI[Phe(4-NO2)][Nle]EKIHQQDFVNWLLAQ-NH2 [Analog 008] | 1580 | 24.2 |  |  |  |  |
| Y[Aib]EGTFTSDYSIF[Nle]EKIHQQDFVNWLLAQ-NH2 [Analog 011] | 1480 | 693 |  |  |  |  |
| Y[Aib]EGTFTSDYSI[Phe(4-NO2)]MEKIHQQDFVNWLLAQ-NH2 [Analog 016] | 1670 | 18.3 |  |  |  |  |
| Y[Aib]EGTFTSDYSI[Phg][Nle]EKIHQQDFVNWLLAQ-NH2 [Analog 009] | > 2000 | 22.2 |  |  |  |  |
| Y[Aib]EGTFTSDYSIY[Nle]EKIHQQDFVNWLVRQ-NH2 [Analog 021] | 217 | 2.3 | 21.7 |  |  |  |
| Y[Aib]EGTFTSDYSIYMEKEAVREFIAWLVKG-NH2 (N-terminus assumed; SMILES CC[C@H](C)[C@H](NC(=O)[C@H](Cc1ccccc1)NC(=O)[C@H](CCC(=O)O)NC(=O)[C@H](CCCNC(=N)N)NC(=O)[C@@H](NC(=O)[C@H](C)NC(=O)[C@H](CCC(=O)O)NC(=O)[C@H](CCCCN)NC(=O)[C@H](CCC(=O)O)NC(=O)[C@H](CCSC)NC(=O)[C@H](Cc1ccc(O)cc1)NC(=O)[C@@H](NC(=O)[C@H](CO)NC(=O)[C@H](Cc1ccc(O)cc1)NC(=O)[C@H](CC(=O)O)NC(=O)[C@H](CO)NC(=O)[C@@H](NC(=O)[C@H](Cc1ccccc1)NC(=O)[C@@H](NC(=O)CNC(=O)[C@H](CCC(=O)O)NC(=O)C(C)(C)NC(=O)[C@@H](N)Cc1ccc(O)cc1)[C@@H](C)O)[C@@H](C)O)[C@@H](C)CC)C(C)C)C(=O)N[C@@H](C)C(=O)N[C@@H](Cc1c[nH]c2ccccc12)C(=O)N[C@@H](CC(C)C)C(=O)N[C@H](C(=O)N[C@@H](CCCCN)C(=O)NCC(N)=O)C(C)C) [Analog 023] | 1.28 | 0.088 | 107 | 75 | 1.28 | 0.088 |
| Y[Aib]EGTFISDYSIA[Nle]EKIHQQDFVNWLLAQ-NH2 [Analog 010] | > 2000 | 11.5 |  |  |  |  |
